Data reported in paper PMC10399710, “The invariant chain CD74 protein is a cell surface binding partner of TIMP‐1 in breast cancer cells” (Molecular Oncology, 2023).

Target: T1, MHC class II‐associated invariant chain γ (CD74), endogenous in MDA‐MB‐231 cells (human (endogenous in MDA‐MB‐231), UniProt P04233 1-296)
T1 sequence (looked up): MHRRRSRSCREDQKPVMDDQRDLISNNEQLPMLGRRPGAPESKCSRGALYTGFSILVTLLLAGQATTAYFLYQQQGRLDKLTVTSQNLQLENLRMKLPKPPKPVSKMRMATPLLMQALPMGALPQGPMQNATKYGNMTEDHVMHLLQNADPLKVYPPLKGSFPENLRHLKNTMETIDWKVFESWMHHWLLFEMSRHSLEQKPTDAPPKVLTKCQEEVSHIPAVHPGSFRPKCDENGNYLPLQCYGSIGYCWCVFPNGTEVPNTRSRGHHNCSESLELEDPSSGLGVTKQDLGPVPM
Assay: cell-based or functional assay

B1: his6‐tagged human recombinant TIMP‐1 protein (rTIMP‐1) (natural protein)
chain: not shown
modifications: extensively glycosylated
  P‐Akt (Ser473)/Akt ratio in MDA‐MB‐231 cells after 10 and 30 min of rTIMP‐1, normalised to 0 min (western blot): 2.3 P‐Akt/Akt ratio normalised to the 0 min sample
